T1: HHV-6B gB ectodomain (residues 1-680, strain Z29) with fusion loop substitutions, C-terminal Flag-tag (Human herpesvirus 6B (strain Z29), UniProt P36320 20-680, VGVV102-105 to HRTT | WLY187-189 to ATH)
T1 construct: signal peptide in the construct (predicted signal peptide residues 1-19); glycoprotein B of human herpesvirus 6B strain Z29, ectodomain residues 1-680; Same ectodomain as m1 (a trimer in the structure) with a Flag-tag instead of the His-tag; also called HHV-6B gB-Flag; wild-type HHV-6B gB-Flag; source: Expi293F, transiently transfected, purified from supernatant (Flag beads, 3xFlag peptide …)
T1 sequence: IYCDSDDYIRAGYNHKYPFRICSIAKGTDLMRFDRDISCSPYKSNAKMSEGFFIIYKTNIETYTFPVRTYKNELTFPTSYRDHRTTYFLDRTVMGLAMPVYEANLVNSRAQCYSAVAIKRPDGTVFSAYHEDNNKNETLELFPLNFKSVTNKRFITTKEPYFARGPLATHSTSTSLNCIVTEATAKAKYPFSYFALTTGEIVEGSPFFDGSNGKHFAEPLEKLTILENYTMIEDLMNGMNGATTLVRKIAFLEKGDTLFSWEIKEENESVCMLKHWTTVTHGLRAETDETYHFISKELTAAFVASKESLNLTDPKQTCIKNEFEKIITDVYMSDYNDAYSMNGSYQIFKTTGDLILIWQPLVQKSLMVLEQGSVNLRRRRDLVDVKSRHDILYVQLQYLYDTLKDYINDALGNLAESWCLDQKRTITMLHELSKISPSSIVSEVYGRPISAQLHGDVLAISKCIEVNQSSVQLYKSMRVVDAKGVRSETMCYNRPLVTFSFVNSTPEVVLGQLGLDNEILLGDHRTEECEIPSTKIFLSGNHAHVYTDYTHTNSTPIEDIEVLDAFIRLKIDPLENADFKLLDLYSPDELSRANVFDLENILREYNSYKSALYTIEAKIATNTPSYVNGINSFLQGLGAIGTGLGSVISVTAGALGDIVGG

B1: HHV-6B gB ectodomain (residues 1-680, strain Z29) with fusion loop substitutions, C-terminal His-tag (domain or fragment)
chain: T1 sequence
notes: signal peptide in the construct (predicted signal peptide residues 1-19); glycoprotein B of human herpesvirus 6B strain Z29, ectodomain residues 1-680; furin site 396RRRR|D400 not mutated, mostly uncleaved; also called HHV-6B gB-His; HHV-6B gB680-mut; source: Expi293F, transiently transfected, purified from supernatant (Ni Sepharose IMAC, Superdex 200 SEC); not shown: His6, C-terminal, kept
B2: human nectin-2 V-set domain (residues 1-158) fused with the Fc region of human IgG (Fc fusion)
chain: QDVRVQVLPEVRGQLGGTVELPCHLLPPVPGLYISLVTWQRPDAPANHQNVAAFHPKMGPSFPSPKPGSERLSFVSAKQSTGQDTEAELQDATLALHGLTVEDEGNYTCEFATFPKGSVRGMTWLRV
notes: signal peptide in the construct; human nectin cell adhesion molecule 2 (nectin-2), V-set domain, residues 1-158; also called V-set-Fc; source: Expi293F, transiently transfected, purified from supernatant (protein G resin, SEC)

How the values were obtained:
[1] = biological target: the molecule itself; assay: cryo-EM structure; HHV-6B gB-His at 10 mg/ml in PBS with 0.1% DDM; single-particle analysis, C3 symmetry applied, 2.8 Å; postfusion trimer
[2] = biological target: B1; assay: co-IP; purified proteins: 4 µg V-set-Fc with 8 µg HHV-6B gB (His- or Flag-tagged), 4°C 2 h, protein G beads overnight at 4°C; six washes in 50 mM HEPES pH 7.4, 150 mM NaCl, 5 mM EDTA, 0.5% NP40; immunoblot with anti-human IgG and anti-His or anti-Flag; conditions: both partners purified
[3] = biological target: T1, HHV-6B gB ectodomain (residues 1-680, …); assay: as above; conditions: both partners purified

Row | Binder | stoichiometry N [1] | binding result [2] | binding result [3]
1 | B1 | 3 |  | 
2 | B2 |  | binds | binds

Reference: paper PMC12240383, “Human herpesvirus 6B glycoprotein B postfusion structure, vulnerability mapping, and receptor recognition” (PLOS Pathogens, 2025)
